Target: T1, recombinant EphA2 protein (R&D systems) (human, UniProt P29317 25-534, limits assumed)
T1 construct: Bought protein coated on the ELISA plate at 1 ug/mL; also called hEphA2; human antigen EphA2
Test: ELISA: recombinant EphA2 coated at 1 ug/mL, monobody-amh diluted twofold from 500 nM, detected with HRP anti-c-Myc antibody, OD 450 nm

T1 sequence (P29317 25-534 limits assumed): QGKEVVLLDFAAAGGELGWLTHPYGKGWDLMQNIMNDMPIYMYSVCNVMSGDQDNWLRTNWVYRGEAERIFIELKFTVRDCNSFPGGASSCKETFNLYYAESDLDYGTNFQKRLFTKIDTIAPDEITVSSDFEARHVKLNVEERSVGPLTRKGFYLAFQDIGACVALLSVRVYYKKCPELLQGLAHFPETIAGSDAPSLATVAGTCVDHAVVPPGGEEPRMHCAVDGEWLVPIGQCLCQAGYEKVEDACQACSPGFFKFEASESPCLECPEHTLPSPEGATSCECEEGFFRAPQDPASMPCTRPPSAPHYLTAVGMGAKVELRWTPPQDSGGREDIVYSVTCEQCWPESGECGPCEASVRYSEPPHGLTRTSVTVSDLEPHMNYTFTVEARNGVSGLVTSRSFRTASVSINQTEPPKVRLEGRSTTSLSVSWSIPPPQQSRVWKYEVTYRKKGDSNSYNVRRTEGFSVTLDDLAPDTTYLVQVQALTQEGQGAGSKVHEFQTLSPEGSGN

binding result | Binder
binds | E1-amh (E1 monobody with C-terminal AviTag-Myc-6xHis tag) (designed binder, Expressed in E. coli BL21(DE3) from pETamh and purified by IMAC and size exclusion; also called non-hydrophilic monobody(E1); E1 monomer; not shown: amh tag (AviTag-Myc-6xHis) of the pETamh vector linked to the C-terminus) VSDVPRDLEVVAATPTSLLISWYYPFCAFYYRITYGETGGNSPVQEFTVPRPSDTATISGLKPGVDYTITVYAVTCLGSYSRPISINYRT
binds | hpE1-amh (hydrophilic E1 monobody with C-terminal AviTag-Myc-6xHis tag) (designed binder, Expressed in E. coli BL21(DE3) from pETamh and purified by IMAC and size exclusion; The gene was cloned at an NdeI site that includes the ATG start codon; also called hpE1 monobody; hydrophilic monobody(hpE1); not shown: amh tag (AviTag-Myc-6xHis) of the pETamh vector linked to the C-terminus) SSDSPRNLEVTNATPNSLTISWYYPFCAFYYRITYGETGGNSPSQEFTVPRPSDTATISGLKPGQDYTITVYAVTCLGSYSRPISINYRTEIDKPSQ
